The target in one test is T1, streptavidin C1 (Streptomyces virginiae, UniProt A0ABQ3NKM7).
T1 construct: ORF Met1-Glu191 in pET-21a, E. coli BL21; His-tagged (C1-His); mature N-terminus 34-SADPR-38; homotetramer about 76 kDa
T1 sequence (A0ABQ3NKM7 26-191 limits assumed): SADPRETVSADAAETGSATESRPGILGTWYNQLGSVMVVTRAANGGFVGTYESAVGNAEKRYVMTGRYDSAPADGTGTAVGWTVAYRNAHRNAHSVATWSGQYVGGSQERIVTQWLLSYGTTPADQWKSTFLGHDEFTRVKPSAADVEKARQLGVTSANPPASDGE
In words: microscale thermophoresis (MST), His-tag-labelled protein. The test is classed as binding.

The next test addresses T2, streptavidin C2 (Streptomyces virginiae, UniProt A0ABQ3NKS0).
T2 construct: gene Scinn_28310; cloned in pET-21a, E. coli BL21; His-tagged (C2-His); homotetramer about 68 kDa
The description is as above. The test is classed as binding. To be noted: read-out: apparent K d.

In a further test the target is T3, avidin (Gallus gallus, UniProt P02701).
T3 construct: gene AVD; homotetramer
In words: thermal unfolding, intrinsic fluorescence […] nm (Tycho NT.[…]). It counts as binding. To be noted: PBS-T, 1 mg/ml protein, 4 mg/ml D-biotin.

For test [1], the target named is streptavidin C1 from Streptomyces cinnamonensis strain KPP02129, recombinant mature form (Streptomyces cinnamonensis). Description: SEC-MALS; Superdex 200 10/300 GL, 20 mM Tris-HCl pH 8.0, 100 mM NaCl, 2 mM DTT; 1-2 mg/ml, 0.25 ml injected, 0.8 ml/min. (In general: In gel filtration, larger molecules generally elute earlier.)
Test [2] shares this target. In words: SDS-PAGE (oligomer bands); purified protein in 1x SDS sample buffer (1% SDS, with or without β-mercaptoethanol), incubated 20 min at 25-100°C, with or without biotin.
Test [3] concerns the target streptavidin C2 from Streptomyces cinnamonensis strain KPP02129, recombinant (Streptomyces cinnamonensis). In words: SEC-MALS; Superdex 200 10/300 GL, 20 mM Tris-HCl pH 8.0, 100 mM NaCl, 2 mM DTT; 1-2 mg/ml, 0.25 ml injected, 0.8 ml/min.
Test [4] has the same target. In words: SDS-PAGE (oligomer bands); purified protein in 1x SDS sample buffer (1% SDS, with or without β-mercaptoethanol), incubated 20 min at 25-100°C, with or without biotin.
Test [5] has as its target C-terminal deletion mutant ΔC1 of streptavidin C1 (amino acids 1-161) (Streptomyces cinnamonensis). In words: MST; Monolith NT.115; 200 nM His-tag-labelled (RED-tris-NTA) ΔC1-His or ΔC2-His, unlabelled peptide 2.4414-80 000 nM, PBS with 0.05% Tween 20, 10 min at room temperature, measured at 25°C, 40% LED power, 60% MST power, triplicate.
For test [6], the target named is C-terminal deletion mutant ΔC2 of streptavidin C1 (amino acids 1-158) (Streptomyces cinnamonensis). The description is as above.

T3 sequence (P02701 25-152): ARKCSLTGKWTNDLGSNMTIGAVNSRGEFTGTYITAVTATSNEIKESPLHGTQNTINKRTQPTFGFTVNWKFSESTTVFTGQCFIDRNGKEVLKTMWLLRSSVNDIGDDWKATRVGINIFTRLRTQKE

On to `O=C(O)CCCC[C@@H]1SC[C@@H]2NC(=O)N[C@@H]21` [D-biotin], for which the Kd on streptavidin C1 is approximately 0.00306 nM; at streptavidin C2, 0.00306 ± 0.0008 nM. Moreover, the T i entry on avidin is “streptavidin (green) and avidin (brown) with or without biotin from differential scanning fluorimetry”.
For the molecule “streptavidin C1 from Streptomyces cinnamonensis strain KPP02129, recombinant mature form (natural protein)”, the stoichiometry N in test [1] and in [2] was 4 in each case.
Regarding “streptavidin C2 from Streptomyces cinnamonensis strain KPP02129, recombinant (natural protein)”, the stoichiometry N in test [3] and in [4] was 4 each time.

B1: ECP peptide (extension C-terminal peptide) of streptavidin C1 (peptide)
peptide: LGVTSANPPASDGE
On to B1, for which the Kd in test [5] was determined as 49 nM; in [6], 110 nM.

B2: C-Lid_ECP peptide of streptavidin C1 (peptide)
peptide: SAADVEKARQLGVTSANPPASDGE
Take B2: the Kd was found to be 21000 nM in test [5] and 7300 nM in test [6].

As usually defined, the stoichiometry N is a count of units in the complex or per binding partner.

The values are drawn from article PMC7924230, “Insights into the structure of mature streptavidin C1 from Streptomyces cinnamonensis reveal the self-binding of the extension C-terminal peptide to biotin-binding sites” (IUCrJ, 2021).
